For test [1], the target named is T1, ATG12–ATG5-ATG16L1-GFP complex (E3-GFP) (human, UniProt O94817 1-140; Q9H1Y0 1-275; Q676U5-1 1-607, conjugated to a lysine residue in ATG5 (ATG12–ATG5 conjugate) | a lysine residue conjugated to ATG12).
T1 construct: ATG12, human; synthetic gene codon optimised for Sf9; conjugated to ATG5 by coexpressed ATG7 and ATG10; ATG5, human; ATG16L1 isoform β, human; Dimer with two copies of each subunit by static light scattering; no TEV cleavage is described for this complex; also called GFP-tagged E3; E3 complex; source: Sf9, coexpressed from one poly-cistronic construct with ATG7 and ATG10, purified (StrepTactin, …)
T1 sequence (O94817 whole entry, chain 1 of 3, canonical isoform): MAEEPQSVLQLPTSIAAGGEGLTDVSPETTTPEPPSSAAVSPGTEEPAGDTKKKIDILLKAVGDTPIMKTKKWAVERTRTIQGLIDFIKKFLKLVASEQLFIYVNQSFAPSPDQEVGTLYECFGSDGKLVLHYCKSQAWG
T1 sequence (Q9H1Y0 whole entry, chain 2 of 3, canonical isoform): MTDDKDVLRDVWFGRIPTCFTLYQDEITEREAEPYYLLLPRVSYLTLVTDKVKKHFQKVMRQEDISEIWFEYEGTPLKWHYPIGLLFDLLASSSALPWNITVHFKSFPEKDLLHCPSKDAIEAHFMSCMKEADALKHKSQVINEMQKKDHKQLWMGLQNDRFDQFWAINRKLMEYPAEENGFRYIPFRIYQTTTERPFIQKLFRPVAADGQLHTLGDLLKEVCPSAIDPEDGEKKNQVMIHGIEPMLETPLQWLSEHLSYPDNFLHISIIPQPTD
T1 sequence (Q676U5 whole entry, chain 3 of 3, canonical isoform): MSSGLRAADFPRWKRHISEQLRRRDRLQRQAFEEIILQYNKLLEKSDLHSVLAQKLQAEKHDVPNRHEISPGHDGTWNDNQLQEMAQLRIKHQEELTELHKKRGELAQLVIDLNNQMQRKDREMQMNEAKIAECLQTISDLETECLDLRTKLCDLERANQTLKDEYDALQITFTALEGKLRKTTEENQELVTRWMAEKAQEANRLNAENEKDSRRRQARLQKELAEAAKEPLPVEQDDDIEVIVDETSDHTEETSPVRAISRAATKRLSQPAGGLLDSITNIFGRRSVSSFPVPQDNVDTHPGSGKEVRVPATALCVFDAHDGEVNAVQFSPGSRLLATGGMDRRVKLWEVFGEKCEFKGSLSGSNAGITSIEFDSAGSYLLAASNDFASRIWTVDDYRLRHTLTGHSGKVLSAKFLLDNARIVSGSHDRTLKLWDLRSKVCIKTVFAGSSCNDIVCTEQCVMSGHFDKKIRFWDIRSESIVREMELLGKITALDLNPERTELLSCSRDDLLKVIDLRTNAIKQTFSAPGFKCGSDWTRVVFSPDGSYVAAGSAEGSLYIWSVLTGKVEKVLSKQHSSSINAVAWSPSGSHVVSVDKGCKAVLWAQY
Nature of the test: microscopy-based bead protein-protein interaction assay; RFP-Trap beads coated with mCherry-WIPI2d, mCherry-Atg21 or mCherry as baits, 5 µM E3-GFP as prey; 25 mM Hepes pH 7.5, 150 mM NaCl, 1 mM DTT; at least 30 min at RT (22°C), confocal imaging. Conditions: both partners purified.

In test [2] the target is T1, ATG12–ATG5-ATG16L1-GFP complex (E3-GFP). In words: microscopy-based bead protein-protein interaction assay; 500 nM GST-mCherry-WIPI3 or GST-mCherry-WIPI4 and 100 nM E3-GFP with glutathione-coated polystyrene beads; 25 mM Hepes pH 7.5, 150 mM NaCl, 1 mM TCEP; 30 min RT, washed three times, confocal imaging. The conditions noted are these: both partners purified.

B1: mCherry-Atg21 (natural protein, S. cerevisiae, UniProt Q02887 1-496, looked up)
chain: MKVLQFNQDATCCVVAASSHQISIFNCDPFGKCFEIDTKNSKKKTSNNNGSASNSESRNNEESILITNGSRDRTDAEEEEDNEDNALVTGNILKEGEFVIEMLFSTSLIAIADRGQGLNKGKKLKIVNTKRKCTICEIVFPHEIVDVVMNRKRMCVLLESDQIFIYDISCMKPLETIDLWEDHYKRSQANSFSNASNTGTLEGDSANLNRVATNLLANATQKSVNGSNPSVRTRRNSLRSKIRPRMVLSNDDRSILCFTAYSSPKKNKPNSEALYDVVIYDTLNVTPVNYLNSVHKGNVACLAVSHDGKLLATASDKGTIIRVFHTGVDSDYMSSRSLFKEFRRGTRLCNLYQLAFDKSMTMIGCVGDTDTIHLFKLDDASNSLPGDNSSNGHWNEEEYILASNSNPSMGTPKEIPLSKPRIANYFSKKIKSSIPNQNLSRNFAYITVNESNRSCLGFPDEFPNQVYIASDDGTFSIYSIPSKPGECVLTKNNKFT
notes: also called yeast Atg21; source: E. coli Rosetta pLysS, purified (Ni-NTA, TEV, Superdex 200); not shown: 6xHis, N-terminal, cleaved; mCherry, N-terminal, kept
Take B1: in test [1], the binding result is “binds”.

B2: GST-mCherry-WIPI3 (natural protein)
chain: not shown
notes: WIPI3, human; synthetic gene; Construct GST-TEV-mCherry-WIPI3; held on glutathione beads in the assay; also called GST-mCherry–tagged WIPI3; source: HEK293 GnTi, transfected, purified; not shown: GST, N-terminal, kept; mCherry, N-terminal, kept
Regarding B2, the binding result in test [2] is listed as “binds”.

For the origin of these results see publication PMC7337497 (The Journal of Cell Biology, 2020).
